Measured values taken from patent US20140088023A1 (UNIVERSITY OF TOLEDO, published 2014).
Ends that are not written are not given here.

target: T1, soluble guanylyl cyclase alpha 1 (sGCα1) (UniProt Q02108 1-690); assay: cell-based or functional assay
T1 sequence (looked up): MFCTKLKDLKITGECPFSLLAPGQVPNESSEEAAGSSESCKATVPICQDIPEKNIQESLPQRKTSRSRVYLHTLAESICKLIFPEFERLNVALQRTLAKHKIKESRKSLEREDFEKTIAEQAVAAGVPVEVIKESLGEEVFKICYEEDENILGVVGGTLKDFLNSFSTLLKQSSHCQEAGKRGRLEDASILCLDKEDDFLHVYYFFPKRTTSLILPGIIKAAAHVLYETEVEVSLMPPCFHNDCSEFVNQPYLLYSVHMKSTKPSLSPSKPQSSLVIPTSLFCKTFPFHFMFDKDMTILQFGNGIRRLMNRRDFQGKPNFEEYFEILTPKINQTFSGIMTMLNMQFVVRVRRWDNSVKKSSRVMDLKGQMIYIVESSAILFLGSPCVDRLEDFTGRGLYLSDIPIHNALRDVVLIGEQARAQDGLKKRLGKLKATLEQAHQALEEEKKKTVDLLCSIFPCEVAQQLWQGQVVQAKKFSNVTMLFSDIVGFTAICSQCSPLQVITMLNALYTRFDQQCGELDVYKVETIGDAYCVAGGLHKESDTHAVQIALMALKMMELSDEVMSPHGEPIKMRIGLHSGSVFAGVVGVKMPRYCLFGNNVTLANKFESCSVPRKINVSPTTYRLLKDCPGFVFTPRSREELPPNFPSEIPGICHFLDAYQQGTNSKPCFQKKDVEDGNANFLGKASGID

In order of falling “IC50 (µM), cytotoxicity, Day 3, LNCaP cell culture” value:
1. FAKAFRRRRRRRR-NH2 [Peptide FF5-C2A-8R]  ~210 µM
2. ACKAFRRRRRRRR-NH2 [Peptide FF5-F1A-8R]  200 µM
3. FCKAARRRRRRRR-NH2 [Peptide FF5-F5A-8R]  160 µM
4. FMKAFRRRRRRRR-NH2 [Peptide FF5-C2M-8R]  90 µM
5. TFCRRRRRRRR [Peptide TC3-8R]  72 µM
6. CKAFRRRRRRRR-NH2 [Peptide CF4-8R]  62 µM
7. FCAAFRRRRRRRR-NH2 [Peptide FF5-K3A-8R]  60 µM
8. FCKARRRRRRRR [Peptide FA4-8R]  43 µM
9. FCKAFRRRRRRRR-NH2 [Peptide FF5-8R]  22 µM
10. FCKAFPRRRRRRRR-NH2 [Peptide FP6-8R]  22 µM
11. TFCKAFRRRRRRRR-NH2 [Peptide TF6-8R]  18 µM
12. TFCKAFPRRRRRRRR-NH2 [Peptide TP7-8R]  16 µM
13. Ac-TFCKAFPFHIIRRRRRRRR-OH [Peptide A-8R]  8 µM

In order of rising “IC50 (µM), cytotoxicity, Day 6, LNCaP cell culture” value:
1. Ac-TFCKAFPFHIIRRRRRRRR-OH [Peptide A-8R]  16 µM
2. TFCKAFPRRRRRRRR-NH2 [Peptide TP7-8R]  23 µM
3. TFCKAFRRRRRRRR-NH2 [Peptide TF6-8R]  28 µM
4. FCKAFPRRRRRRRR-NH2 [Peptide FP6-8R]  35 µM
5. FCAAFRRRRRRRR-NH2 [Peptide FF5-K3A-8R]  38 µM
6. FCKAFRRRRRRRR-NH2 [Peptide FF5-8R]  40 µM
7. FMKAFRRRRRRRR-NH2 [Peptide FF5-C2M-8R]  65 µM
8. FCKARRRRRRRR [Peptide FA4-8R]  90 µM
9. FCKAARRRRRRRR-NH2 [Peptide FF5-F5A-8R]  120 µM
10. CKAFRRRRRRRR-NH2 [Peptide CF4-8R]  120 µM
11. TFCRRRRRRRR [Peptide TC3-8R]  140 µM
12. FAKAFRRRRRRRR-NH2 [Peptide FF5-C2A-8R]  145 µM
13. ACKAFRRRRRRRR-NH2 [Peptide FF5-F1A-8R]  160 µM

target: T1, soluble guanylyl cyclase alpha 1 (sGCα1); assay: competitive binding assay

KAFPRRRRRRRR [Peptide KP4-8R]: no binding.
